These are literature values, as cited in PMC9274133.

Some targets named below: gp130 (Homo sapiens) (UniProt P40189); IL-6R (Homo sapiens) (UniProt P08887); IL-11R (Homo sapiens) (UniProt Q14626).

Chain of gp130 (Homo sapiens) (P40189 23-619): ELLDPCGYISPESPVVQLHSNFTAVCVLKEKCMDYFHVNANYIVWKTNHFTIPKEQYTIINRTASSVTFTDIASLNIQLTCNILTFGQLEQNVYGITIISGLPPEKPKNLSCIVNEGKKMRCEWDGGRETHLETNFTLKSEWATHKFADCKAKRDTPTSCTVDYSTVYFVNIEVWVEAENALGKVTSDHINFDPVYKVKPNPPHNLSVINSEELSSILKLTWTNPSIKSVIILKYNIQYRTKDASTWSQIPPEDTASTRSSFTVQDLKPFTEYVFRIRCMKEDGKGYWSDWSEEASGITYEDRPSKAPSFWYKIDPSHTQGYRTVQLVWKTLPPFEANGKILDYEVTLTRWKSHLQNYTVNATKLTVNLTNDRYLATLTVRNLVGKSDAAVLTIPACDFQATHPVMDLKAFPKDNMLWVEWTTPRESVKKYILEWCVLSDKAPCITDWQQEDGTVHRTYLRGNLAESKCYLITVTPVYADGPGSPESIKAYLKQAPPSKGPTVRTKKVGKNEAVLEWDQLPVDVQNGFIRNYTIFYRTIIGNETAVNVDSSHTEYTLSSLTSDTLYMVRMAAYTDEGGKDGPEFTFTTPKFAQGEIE
Chain of IL-6R (Homo sapiens) (P08887 20-355): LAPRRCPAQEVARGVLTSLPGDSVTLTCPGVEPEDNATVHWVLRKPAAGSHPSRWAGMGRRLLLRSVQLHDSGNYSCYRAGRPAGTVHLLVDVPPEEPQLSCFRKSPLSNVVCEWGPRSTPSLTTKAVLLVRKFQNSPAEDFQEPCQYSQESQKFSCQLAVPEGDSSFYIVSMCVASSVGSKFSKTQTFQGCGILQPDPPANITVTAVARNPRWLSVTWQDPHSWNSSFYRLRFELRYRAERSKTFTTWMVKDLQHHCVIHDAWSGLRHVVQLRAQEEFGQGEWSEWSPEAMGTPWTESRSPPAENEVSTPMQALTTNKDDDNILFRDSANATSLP
Chain of IL-11R (Homo sapiens) (Q14626 23-370): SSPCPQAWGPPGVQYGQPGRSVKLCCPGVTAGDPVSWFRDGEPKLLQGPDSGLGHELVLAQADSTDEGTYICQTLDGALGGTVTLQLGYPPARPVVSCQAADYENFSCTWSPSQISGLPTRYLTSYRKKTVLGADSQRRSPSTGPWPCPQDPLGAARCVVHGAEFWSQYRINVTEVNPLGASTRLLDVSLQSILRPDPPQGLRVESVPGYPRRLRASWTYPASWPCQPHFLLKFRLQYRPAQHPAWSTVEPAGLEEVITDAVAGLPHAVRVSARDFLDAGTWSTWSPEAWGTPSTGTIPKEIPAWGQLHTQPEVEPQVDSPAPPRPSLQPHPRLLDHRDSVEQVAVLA
Chain of IL-11 (P20809 22-199): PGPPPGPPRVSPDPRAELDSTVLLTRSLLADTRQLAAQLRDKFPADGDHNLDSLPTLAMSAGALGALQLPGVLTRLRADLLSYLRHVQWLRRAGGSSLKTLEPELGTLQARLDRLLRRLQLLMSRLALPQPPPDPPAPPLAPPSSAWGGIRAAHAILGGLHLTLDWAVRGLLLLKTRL

As to “IL-6/IL-6R complex (from UniProt P05231)”, in the series with gp130 (Homo sapiens), the Kd was 0.01 nM.

For the substance IL-6 (from UniProt P05231), the dissociation constant (Kd) with IL-6R (Homo sapiens) was 1 nM.

As to IL-11 (from UniProt P20809), the dissociation constant Kd with IL-11R (Homo sapiens) was 10 nM.

By Kd is commonly meant a measure of binding affinity in units of concentration.
